± gives the standard deviation of the averaged measurements.
System: ATP
Test: switch fluorescence ratio, 500 uM ATP over buffer (Cy3 cluster intensity, sum of 5 cycles each) (fold (ratio)); higher = stronger signal-on switching upon ATP binding; sequences stand for … in TCGTCGGCAGCGTCAGATGTGTATAAGAGACAGTTTTTTTTTTTTTTTTTTTTTTTTT…TC
Conditions: aptamer strand: ATP DNA aptamer (quencher-CACCTGGGGGAGTATTGCGGAGGAAGG + anchor), 100 nM annealed; ATP concentration: 500 uM
How it was run: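 The fluorescence ratio divides summed target-cycle Cy3 intensity by summed buffer-cycle Cy3 intensity for each cluster and is averaged per switch-domain sequence. Cy3-labelled switching-strand clusters on a modified Illumina MiSeq flow-cell were annealed to 100 nM quencher-labelled ATP aptamer, then imaged in selection buffer and again after 15 min with 500 uM ATP at 22 °C. Five such cycles were run, with NaOH stripping and re-annealing between them, and clusters outside 100-1000 RFU were excluded.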
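Note: ATP exposure 15 min at 22 °C before imaging.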

| Sequence | switch fluorescence ratio |
| --- | --- |
| TTTAAACGGA | 1.05 ± 0.081 |
| TTGTTGGCGA | 1.04 ± 0.023 |
| AGGCAACGGT | 1.01 ± 0.012 |
| ATACGAGATT | 1.009 ± 0.0079 |
| GTTGTTGGTG | 1.01 ± 0.015 |
| CACTGTAACG | 1.194 ± 0.0063 |
| TTGATCAGGC | 0.996 ± 0.016 |
| GGGGGGCTGC | 0.978 ± 0.036 |
| AGAGGGAGAT | 0.9876 ± 0.0098 |
| ATAATGGGCG | 0.995 ± 0.058 |
| TCTGAATTCA | 0.972 ± 0.026 |
| GGGAGGGCAA | 0.986 ± 0.013 |
| TTTGCAGAAC | 1.2 ± 0.15 |
| TTAAGTTGAT | 0.988 ± 0.033 |
| CGACGGCTGG | 1.01 ± 0.07 |
| GATTTAAGGG | 0.993 ± 0.018 |
| TCAAAGCCCT | 1.03 ± 0.03 |
| AGGAGATTTT | 0.957 ± 0.032 |
| GAAATTTGAA | 1.01 ± 0.012 |
| CTGTAAGGTG | 1.83 ± 1 |
| TTGGTCCGTT | 1.02 ± 0.045 |
| TATTGAAATT | 1.05 ± 0.022 |
| GGGGAATGCA | 1.01 ± 0.034 |
| AAAAACAACT | 1.024 ± 0.0076 |
| GAAGTTATCG | 0.982 ± 0.022 |

| Sequence | switch fluorescence ratio |
| --- | --- |
| TGCTGGATT | 0.983 ± 0.025 |
| AGGTGCTCAT | 1.02 ± 0.036 |
| GAGGGGGGAC | 1.02 ± 0.032 |
| TCTGTTGGGG | 0.992 ± 0.038 |
| CCCGGGAGGT | 1.035 ± 0.0094 |
| ATTGGCTAGG | 0.999 ± 0.037 |
| ATCAGGTGGT | 1.19 ± 0.036 |
| TGCCCTTTTT | 1.01 ± 0.095 |
| GGTTAGCTGC | 0.991 ± 0.023 |
| AAACGCTGCT | 1.02 ± 0.062 |
| CCGGGGATTC | 1.36 ± 0.2 |
| TTTCACTATT | 1.01 ± 0.026 |
| TTTGTTGTAC | 1.06 ± 0.058 |
| TCGATGTTGG | 0.984 ± 0.03 |
| TTTACCTGAG | 1.37 ± 0.025 |
| ATTCCGATTG | 1.07 ± 0.031 |
| TTTTGTGTA | 0.994 ± 0.022 |
| TTGCTCTAGC | 1.03 ± 0.018 |
| GTAATAACGG | 1.034 ± 0.0033 |
| GATAGAAGTA | 0.9733 ± 0.0057 |
| TAAAACAGGA | 0.97 ± 0.017 |
| CGAGGGGATG | 1.006 ± 0.0088 |
| TCGATGGACT | 1.03 ± 0.014 |
| TTTTTGGTGT | 1.03 ± 0.036 |
| AGTGAGGGAA | 0.9787 ± 0.003 |

| Sequence | switch fluorescence ratio |
| --- | --- |
| TATGAGGGTG | 1.08 ± 0.13 |
| CGGGGTAGGT | 0.984 ± 0.027 |
| CCAGTTTGCA | 1.02 ± 0.017 |
| TGGTAACGCG | 1 ± 0.014 |
| CCGTCGAATA | 2.2 ± 0.027 |
| AATATCACGG | 1.05 ± 0.029 |
| CGTGTTTTTG | 0.986 ± 0.02 |
| TGTGGCAGTT | 1.02 ± 0.027 |
| GGCAACGGGG | 1.01 ± 0.036 |
| ATAAGGTACG | 1.05 ± 0.077 |
| TGAGAGGTTA | 1.04 ± 0.013 |
| CGCTGTGGCG | 0.983 ± 0.036 |
| TCATTATTCG | 0.985 ± 0.027 |
| GGGCATTGAA | 0.9895 ± 0.0022 |
| TTTGTAGCAC | 1.31 ± 0.072 |
| TCGGAGGCGG | 1.007 ± 0.0069 |
| TACCTTTTAA | 1.02 ± 0.026 |
| GGATATCGTT | 1.032 ± 0.0059 |
| ACAACGGCCG | 1.05 ± 0.012 |
| CCAACTTGGA | 0.9849 ± 0.003 |
| GTCGGGGCTG | 0.972 ± 0.049 |
| TAGGAGCAGG | 1.09 ± 0.021 |
| CATAGGGCCA | 1 ± 0.012 |
| TTGGCCTTAG | 0.972 ± 0.015 |
| AAGTGCCCCA | 1.05 ± 0.016 |

| Sequence | switch fluorescence ratio |
| --- | --- |
| ATATTCTTTG | 0.997 ± 0.016 |
| TTACCGGGCT | 1.051 ± 0.004 |
| TCTAATTGGG | 1.01 ± 0.037 |
| TTGAAGTTCG | 0.986 ± 0.022 |
| AACGGTTTTT | 0.972 ± 0.036 |
| TTATATTCTT | 0.9964 ± 0.0042 |
| TTTAATTATT | 1.02 ± 0.0053 |
| CGGGGGACT | 1.61 ± 0.85 |
| TAGTGTAGGT | 1.03 ± 0.02 |
| TTCGCTAGCT | 1.03 ± 0.058 |
| GGTGAGTGCA | 1.02 ± 0.07 |
| TTGGAAGTC | 1.04 ± 0.026 |
| TAATATCTTT | 0.995 ± 0.054 |
| CGGTTTTGCG | 0.985 ± 0.024 |
| GGCGTAGTCA | 0.9855 ± 0.0022 |
| TGGATAGGCA | 0.986 ± 0.012 |
| CGTTGTGGCA | 1 ± 0.028 |
| GGTTTTGCAC | 1.03 ± 0.038 |
| AAAGCGGTAT | 1.038 ± 0.007 |
| TTTTTTTTTC | 1.04 ± 0.11 |
| ACATACAGGG | 1.31 ± 0.038 |
| AACTTTCCGA | 2.36 ± 0.39 |
| TGATTGTTAT | 1.029 ± 0.0016 |
| GTGGCGGGGA | 1.02 ± 0.038 |
| TACTAGTACA | 1.09 ± 0.018 |

| Sequence | switch fluorescence ratio |
| --- | --- |
| ATGGCCGAGT | 1.03 ± 0.038 |
| GGGTAATTGA | 0.99 ± 0.032 |
| TTTCTTCGCG | 1.027 ± 0.0032 |
| CGGAGGAACG | 1.01 ± 0.038 |
| ATAGTAGTAG | 0.998 ± 0.011 |
| GCTGATGGTG | 0.989 ± 0.02 |
| GATAAATGTT | 0.985 ± 0.01 |
| GATTTAATTG | 1.03 ± 0.09 |
| GGGCGGGTTG | 1 ± 0.0036 |
| GGCGGGGGCC | 0.969 ± 0.016 |
| GGGTTTAGAG | 0.9877 ± 0.0093 |
| TTTGGATGGG | 0.994 ± 0.012 |
| GTGGAACATT | 1.02 ± 0.049 |
| CCACGGTTAG | 0.981 ± 0.023 |
| GTGGGATTT | 0.995 ± 0.022 |
| GCTTTATTGC | 1.01 ± 0.014 |
| ACCACAAAGG | 1.48 ± 0.61 |
| TTAGTGTGTG | 0.994 ± 0.011 |
| TTGGGCATTT | 1.05 ± 0.089 |
| AGGGGTCCCG | 0.93546 ± 0.00063 |
| TCGTGGATGG | 1 ± 0.026 |
| ATAGGGCG | 0.987 ± 0.011 |
| TGGTTTTTTC | 1.01 ± 0.033 |
| TTAAAAAGTA | 1.03 ± 0.02 |
| AAGTAGTCGA | 0.9838 ± 0.0041 |

| Sequence | switch fluorescence ratio |
| --- | --- |
| GCAATCGTGG | 1.035 ± 0.0042 |
| CCTTAAGTGT | 1.04 ± 0.041 |
| TTTTTGGAAT | 1 ± 0.028 |
| TTAAGGGACG | 0.996 ± 0.11 |
| CTTAAATGGG | 0.955 ± 0.019 |
| CTGAGGCTGA | 1.12 ± 0.11 |
| TATTTAACTT | 1.014 ± 0.005 |
| GCCGGGACCG | 1.024 ± 0.01 |
| TATCGTGGAG | 1.04 ± 0.042 |
| CGTCTTTAGA | 0.987 ± 0.01 |
| TAATTTGTTC | 1 ± 0.026 |
| TTTATATTCT | 1.03 ± 0.074 |
| TTTCGATTCT | 0.978 ± 0.029 |
| TGGGGTATGG | 0.978 ± 0.033 |
| TTTTAAACGT | 1.04 ± 0.039 |
| TTTGGTGGGA | 0.972 ± 0.026 |
| ATCGGTTGTG | 1.01 ± 0.029 |
| TTTATTTTCC | 1.05 ± 0.033 |
| TGCGATTTGT | 1.04 ± 0.043 |
| TAGGGGAGGC | 0.984 ± 0.016 |
| TTGGCGTAAG | 1.03 ± 0.045 |
| TGATGTTTTT | 1.01 ± 0.024 |
| GCCTTCCCGG | 1.9 ± 0.08 |
| AAGGGCTGGT | 0.99 ± 0.022 |
| TATTGAGATA | 1.01 ± 0.04 |

| Sequence | switch fluorescence ratio |
| --- | --- |
| GGTCGCATTC | 1.05 ± 0.047 |
| GGGGTAAAAC | 1.02 ± 0.023 |
| CGCGTTGAAA | 1.038 ± 0.0035 |
| TTCGAAAGTT | 0.987 ± 0.026 |
| AAGGTTTTTC | 1.01 ± 0.015 |
| GGATCTTAAG | 0.991 ± 0.035 |
| TATTATTTTC | 1.03 ± 0.046 |
| AATTACTGG | 1 ± 0.031 |
| AGAAGAAGTA | 0.9955 ± 0.0035 |
| TCCATTGTCC | 1.08 ± 0.052 |
| CGGTTTTGGG | 0.977 ± 0.012 |
| GAATTACTAT | 1.038 ± 0.0087 |
| AGTTTCTGTG | 0.968 ± 0.059 |
| TTGGGGGAGG | 0.989 ± 0.021 |
| TAAAGAAAAA | 1.02 ± 0.029 |
| AACGAATTCA | 1.05 ± 0.017 |
| CGGGCGCACT | 1.06 ± 0.037 |
| CTCCTAGTCA | 1.05 ± 0.061 |
| ATGTAGCGAC | 1.44 ± 0.39 |
| GACTGGTCGA | 0.996 ± 0.053 |
| ATCAGCCATA | 1.03 ± 0.036 |
| TATAGATTTT | 1.003 ± 0.0078 |
| AAAACCGGAT | 1.11 ± 0.18 |
| TGGGTTTTGG | 0.997 ± 0.052 |
| AATCGTGGTT | 1 ± 0.034 |

| Sequence | switch fluorescence ratio |
| --- | --- |
| TAATTTGGTT | 1.01 ± 0.026 |
| CATGTGGACG | 1.1 ± 0.02 |
| AGGGTTTTCG | 0.972 ± 0.022 |
| GGTTCAAGGA | 0.99 ± 0.063 |
| CGTTCTCCCC | 1.03 ± 0.068 |
| CGGGGCGTCA | 0.978 ± 0.032 |
| GTTTTATGAT | 0.967 ± 0.016 |
| AGGGGGTGGT | 0.987 ± 0.043 |
| ACTGGGATC | 1.01 ± 0.019 |
| GCGGAGAGAT | 1.27 ± 0.33 |
| TGTGACAGGA | 1.02 ± 0.057 |
| GTGAGAGGGT | 0.998 ± 0.029 |
| CGGTCGTTGT | 1.02 ± 0.03 |
| CGGATCTTTA | 1.01 ± 0.037 |
| CTTAGAGTTG | 0.983 ± 0.016 |
| TCGATCCTGA | 0.998 ± 0.032 |
| TACAGGGATC | 0.993 ± 0.027 |
| GGGGGTCCAT | 0.954 ± 0.031 |
| GGGTCCATGA | 1.03 ± 0.05 |
| TCGTATTGGT | 1.02 ± 0.023 |
| TCTTTACAGT | 1.05 ± 0.032 |
| GCCATATTTC | 0.998 ± 0.041 |
| GGGTATGGTA | 1 ± 0.023 |
| GCTATGGGAT | 0.995 ± 0.04 |
| CCTTAGATTA | 1.01 ± 0.031 |
